Read-outs that look alike come from different tables or passages of the source. Square brackets hold non-standard residues; d marks the D form. Ends that are not written are not given here. Arg(Me2a) = CN(C)C(=N)NCCC[C@H](N)C(=O)O; Lys(Me3) = C[N+](C)(C)CCCC[C@H](N)C(=O)O; Arg(Me2s) = CN=C(NC)NCCC[C@H](N)C(=O)O; pT = C[C@@H](OP(=O)(O)O)[C@H](N)C(=O)O; Lys(Me2) = CN(C)CCCC[C@H](N)C(=O)O; pS = N[C@@H](COP(=O)(O)O)C(=O)O; Lys(Me) = CNCCCC[C@H](N)C(=O)O; Me2a = not defined here; me2a = not defined here
T1: CaBdf1 BD1 (Candida albicans, UniProt Q5A4W8)
T1 construct: made in house; host or cells: E. coli BL21(DE3)
T1 sequence (Q5A4W8 whole entry, looked up): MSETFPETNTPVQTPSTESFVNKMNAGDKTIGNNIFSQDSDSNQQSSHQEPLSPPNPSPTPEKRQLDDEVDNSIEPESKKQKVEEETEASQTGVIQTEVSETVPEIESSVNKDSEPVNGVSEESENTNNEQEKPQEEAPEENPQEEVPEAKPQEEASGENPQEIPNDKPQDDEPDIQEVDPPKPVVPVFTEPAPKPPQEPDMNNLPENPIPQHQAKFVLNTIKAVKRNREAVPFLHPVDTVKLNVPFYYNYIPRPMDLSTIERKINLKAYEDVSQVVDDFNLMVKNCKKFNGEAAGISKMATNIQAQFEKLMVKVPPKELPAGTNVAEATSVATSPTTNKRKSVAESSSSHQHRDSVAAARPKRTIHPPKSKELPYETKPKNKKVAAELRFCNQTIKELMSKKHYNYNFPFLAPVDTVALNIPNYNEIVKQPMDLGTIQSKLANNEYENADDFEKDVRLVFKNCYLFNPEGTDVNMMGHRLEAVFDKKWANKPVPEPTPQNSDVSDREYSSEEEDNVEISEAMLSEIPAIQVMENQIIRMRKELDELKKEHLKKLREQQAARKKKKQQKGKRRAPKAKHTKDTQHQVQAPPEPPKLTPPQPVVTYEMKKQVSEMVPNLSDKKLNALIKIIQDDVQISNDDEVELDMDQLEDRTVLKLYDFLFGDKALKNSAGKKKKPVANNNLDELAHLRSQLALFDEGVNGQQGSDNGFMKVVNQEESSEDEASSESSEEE

T2: CaBdf1 BD2 (Candida albicans, UniProt Q5A4W8)
T2 construct: made in house; host or cells: E. coli BL21(DE3)
T2 sequence (Q5A4W8 whole entry, looked up): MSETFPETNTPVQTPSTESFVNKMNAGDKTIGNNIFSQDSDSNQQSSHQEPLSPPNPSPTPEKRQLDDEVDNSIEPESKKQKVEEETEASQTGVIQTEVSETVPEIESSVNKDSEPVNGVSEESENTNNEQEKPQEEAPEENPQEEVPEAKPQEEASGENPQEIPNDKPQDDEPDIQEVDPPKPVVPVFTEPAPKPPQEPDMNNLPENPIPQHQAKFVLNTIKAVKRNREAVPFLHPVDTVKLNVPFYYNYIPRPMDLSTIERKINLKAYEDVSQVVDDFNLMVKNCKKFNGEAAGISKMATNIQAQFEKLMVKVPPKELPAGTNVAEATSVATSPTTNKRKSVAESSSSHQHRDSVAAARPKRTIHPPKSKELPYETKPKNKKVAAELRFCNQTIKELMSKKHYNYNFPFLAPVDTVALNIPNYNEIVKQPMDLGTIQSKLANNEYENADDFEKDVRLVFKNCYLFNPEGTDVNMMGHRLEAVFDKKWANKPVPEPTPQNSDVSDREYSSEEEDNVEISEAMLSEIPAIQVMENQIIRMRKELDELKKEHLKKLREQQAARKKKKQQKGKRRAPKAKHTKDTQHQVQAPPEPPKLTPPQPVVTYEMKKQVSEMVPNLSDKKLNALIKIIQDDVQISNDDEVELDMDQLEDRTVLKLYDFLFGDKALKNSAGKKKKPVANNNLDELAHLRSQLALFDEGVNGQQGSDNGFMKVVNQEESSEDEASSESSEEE

T3: CaBdf1 BD2 (GST-tagged, wild-type) (Candida albicans (strain SC5314 / ATCC …, UniProt Q5A4W8))
T3 chain: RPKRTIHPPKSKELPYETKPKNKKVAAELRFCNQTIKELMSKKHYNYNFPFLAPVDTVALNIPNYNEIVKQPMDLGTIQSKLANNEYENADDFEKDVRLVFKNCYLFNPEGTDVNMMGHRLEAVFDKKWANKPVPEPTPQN

T4: CaBdf1 BD1 (GST-tagged, wild-type) (Candida albicans (strain SC5314 / ATCC …, UniProt Q5A4W8))
T4 chain: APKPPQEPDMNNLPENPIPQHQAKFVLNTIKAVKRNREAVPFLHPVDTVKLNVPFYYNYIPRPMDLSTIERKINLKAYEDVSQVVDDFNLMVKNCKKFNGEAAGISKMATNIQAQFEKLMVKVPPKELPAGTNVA


Key:
CaBdf1 BD1 = target: T1, CaBdf1 BD1; format: binding; conditions: wild-type BD1; for CaBdf1 BD1 Raw data WT: peptide array signal
Experimental: (§1) In short, arrays were blocked and incubated with 1 μM of purified CaBdf1 BD1 or BD2. Arrays were incubated with recombinant BDs for 2 h at 4 °C in binding buffer (Tris-HCl 50 mM pH 7.4, NP-40 0.1%, NaCl 150 mM, glycerol 10%). […] Assays were performed in duplicate.

CaBdf1 BD2 = target: T2, CaBdf1 BD2; format: binding; conditions: wild-type BD2; for CaBdf1 BD2 Raw data WT: peptide array signal
Experimental: as §1

CaBdf1 BD1 Y248F = target: T5, CaBdf1 BD1 Y248F (Candida albicans, UniProt Q5A4W8, Y248F); assay: Histone peptide microarray binding, YF mutant;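 for CaBdf1 BD1 Normalized (0 to 100%) YF mutant: normalized to spotted c-myc peptide positive control signal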; set-up: species or system C. albicans; conditions: YF mutant BD1; for CaBdf1 BD1 Raw data YF mutant: peptide array signal
T5 construct: made in house; host or cells: E. coli BL21(DE3), inferred from the wild-type GST construct
T5 sequence (Q5A4W8 193-327 Y248F): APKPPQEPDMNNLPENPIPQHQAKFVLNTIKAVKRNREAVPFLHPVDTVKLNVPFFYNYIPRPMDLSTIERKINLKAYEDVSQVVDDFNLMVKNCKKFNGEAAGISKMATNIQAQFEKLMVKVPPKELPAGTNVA
Experimental: as §1, with “duplicate. Images were acquired on a Bio-Rad ChemiDoc XRS Imaging machine and data were quantified using the array analyser software provided by Active Motif.” for “duplicate.”

CaBdf1 BD2 Y425F = target: T6, CaBdf1 BD2 Y425F (Candida albicans, UniProt Q5A4W8, Y425F); assay: Histone peptide microarray binding, YF mutant;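 for CaBdf1 BD2 Normalized (0 to 100%) YF mutant: normalized to spotted c-myc peptide positive control signal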; set-up: species or system C. albicans; conditions: YF mutant BD2; for CaBdf1 BD2 Raw data YF mutant: peptide array signal
T6 construct: made in house; host or cells: E. coli BL21(DE3), inferred from the wild-type GST construct
T6 sequence (Q5A4W8 361-501 Y425F): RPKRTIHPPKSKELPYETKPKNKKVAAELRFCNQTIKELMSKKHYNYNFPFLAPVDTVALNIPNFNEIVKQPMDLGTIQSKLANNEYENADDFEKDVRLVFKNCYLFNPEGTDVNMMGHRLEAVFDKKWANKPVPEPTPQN
Experimental: as §1, with “duplicate. Images were acquired on a Bio-Rad ChemiDoc XRS Imaging machine and data were quantified using the array analyser software provided by Active Motif.” for “duplicate.”

[1] = target: T3, CaBdf1 BD2 (GST-tagged, wild-type); assay: histone peptide array (Active Motif MODified), 1 uM GST-tagged bromodomain, anti-GST detection, normalized mean intensity
[2] = target: T4, CaBdf1 BD1 (GST-tagged, wild-type); assay: as above
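Throughout, for CaBdf1 BD1 Normalized (0 to 100%) WT: normalized to spotted c-myc peptide positive control signal.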
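Throughout, for CaBdf1 BD2 Normalized (0 to 100%) WT: normalized to spotted c-myc peptide positive control signal.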

Molecule	binding score [1]	binding score [2]	also measured
A Rme2s T Kme3 Q T A R Kme3 S T G G K A P R K Q			CaBdf1 BD1 Normalized (0 to 100%) WT (CaBdf1 BD1; normalized array signal): 0.254%; CaBdf1 BD1 Raw data WT (CaBdf1 BD1; first of two raw-data columns): 0.003207; CaBdf1 BD1 Raw data WT (CaBdf1 BD1): 0.004276; CaBdf1 BD2 Normalized (0 to 100%) WT (CaBdf1 BD2; normalized array signal): 0.481%; CaBdf1 BD2 Raw data WT (CaBdf1 BD2; first of two raw-data columns): 0.01784; CaBdf1 BD2 Raw data WT (CaBdf1 BD2): 0.002745; CaBdf1 BD1 Normalized (0 to 100%) YF mutant (CaBdf1 BD1 Y248F; normalized array signal): 0.797%; CaBdf1 BD1 Raw data YF mutant (CaBdf1 BD1 Y248F; first of two raw-data columns): 0.007888; CaBdf1 BD1 Raw data YF mutant (CaBdf1 BD1 Y248F): 0.003772; CaBdf1 BD2 Normalized (0 to 100%) YF mutant (CaBdf1 BD2 Y425F; normalized array signal): 0.537%; CaBdf1 BD2 Raw data YF mutant (CaBdf1 BD2 Y425F; first of two raw-data columns): 0.00534; CaBdf1 BD2 Raw data YF mutant (CaBdf1 BD2 Y425F): 0.002427
ARTKQTARKSTGGKAPRKQ (A R T Kme2 Q T A Rme2a Kme1 S T G G K A P R K Q)	0.00666	0.0363	
ARTKQTARKSTGGKAPRKQ (A Rme2a T Kme2 Q T A Rme2s Kac S T G G K A P R K Q)	0.00333	0.0435	
ARTKQTA[Arg(Me2a)]K(Me)[pS]TGGKAPRKQ	0.00407	0.00326	
ARTKQTARKSTGGKAPRKQ (A R T Kac Q T A Rme2a Kme3 S T G G K A P R K Q)	0.00592	0.0087	
ARTKQTARKSTGGKAPRKQ (A Rme2a T Kac Q T A Rme2s Kme1 S T G G K A P R K Q)	0.00296	0.00471	
ARTKQTARKSTGGKAPRKQ (A Rme2s pT Kme2 Q T A R K S T G G K A P R K Q)	0.00333	0.00363	
ARTKQTARKSTGGKAPRKQ (A Rme2s T Kac Q T A Rme2s Kac S T G G K A P R K Q)	0.00629	0.041	
AR(me2a)TK(Ac)QTAR(me2a)K(Me)STGGKAPRKQ (reading uncertain)	0.00888	0.00761	
RKSAPATGGVKKPHRYRPG (R K S A P A T G G V Kme3 K P H R Y R P G) [H3 26-45]	0.00777	0.00761	
PRKQLATKAAR(Me2s)K(Me)SAPATGG	0.00296	0.00435	
ARTKQTARKSTGGKAPRKQ (A Rme2a T Kme2 Q T A Rme2s Kme1 S T G G K A P R K Q)	0.0037	0.00399	
SGRGK(Ac)QGGK(Ac)ARAKAKSRSS	0.0133	0.0283	
[pS]GRGK(Ac)QGGKARAKAKSRSS	0.0215	0.0156	
SGRGKGGKGLGKGGAKRHR (not fully specified; histone peptide post-translational modifications (acetyl, methyl, phospho, citrulline) listed in columns 4-7 and embedded in the sequence text; N-terminus free or acetylated in column 8)	0.00999	0.00725	
PRKQLATKAAR(Me2s)K(Me3)[pS]APATGG	0.00629	0.00109	
SGRGKGGKGLGKGGAKRHR (S G R G K G G K G L G K G G A Kac R H R)	0.00296	0.0149	

Molecule	binding score [1]	binding score [2]	also measured
R[Arg(Me2s)]K[Lys(Me)]K(Ac)R[Arg(Me2a)][Lys(Me2)]K[Lys(Me3)]R[Lys(Me)][Arg(Me2s)]KK(Ac)RK [background 02]	0.00444	0.00906	
PRKQLATKAARK(Me)[pS]APATGG	0.00333	0.0029	
ARTKQTARKSTGGKAPRKQ (A R T K Q T A Rme2s Kac S pT G G K A P R K Q)	0.00407	0.00363	
ARTKQTARKSTGGKAPRKQ (A Rme2a T Kme3 Q T A Rme2s Kac S T G G K A P R K Q)	0.0037	0.0337	
PRKQLATKAAR(Me2s)K(Me)[pS]APATGG	0.00259	0.00254	
ARTKQTARKSTGGKAPRKQ (A R pT Kme2 Q T A R K S T G G K A P R K Q)	0.0037	0.00326	
SGRGKQGGKARAKAKSRSS (not fully specified)	0.00259	0.0087	
ARTKQTARKSTGGKAPRKQ (A Rme2s T Kme3 Q T A R K S T G G K A P R K Q)	0	0.00363	
ARTKQTARKSTGGKAPRKQ (A R T K Q T A R K S pT G G K A P R K Q)	0.00037	0.00326	
AR(Me2a)TK(Me3)QTARK(Me2)STGGKAPRKQ (reading uncertain)	0.00296	0.00145	
A[Arg(Me2a)]TK(Ac)QTARKSTGGKAPRKQ	0.00148	0.00363	
ARTKQTARKSTGGKAPRKQ (A R T K Q T A Rme2s Kme3 S pT G G K A P R K Q)	0.0037	0.00399	
ARTKQTARKSTGGKAPRKQ (A Rme2a T Kme1 Q T A Rme2a Kac S T G G K A P R K Q)	0.00333	0.0254	
AR(Me2a)[pT]K(Me)QTARKSTGGKAPRKQ (reading uncertain)	0.00037	0.00471	
AR(Me2s)TK(Me3)QTAR(Me2a)K(Ac)STGGKAPRKQ (reading uncertain)	0.0037	0.0406	
A[Arg(Me2a)]TKQTARKSTGGKAPRKQ	0.00296	0.000363	

From article PMC5454392, “Selective BET bromodomain inhibition as an antifungal therapeutic strategy” (Nature Communications, 2017)
